Experimental data published in paper PMC11031135, “Chemo-enzymatic synthesis of tetrasaccharide linker peptides to study the divergent step in glycosaminoglycan biosynthesis” (Glycobiology, 2024).

Target: the molecule itself
Experiment: mass photometry; Refeyn OneMP; final protein concentration between 50 nM and 125 nM; XylT1 and SUMO-β3GalT6 in Tris buffer A (50 mM Tris pH 7.4, 250 mM NaCl) with 5% glycerol, β4GalT7 in S200 buffer (25 mM MES pH 6.5, 200 mM NaCl, 5% glycerol), GlcAT-1 in HEPES buffer; duplicates

B1: human GlcAT-1, residues 76-335 (enzyme, UniProt O94766 76-335, looked up)
chain: TIYVVTPTYARLVQKAELVRLSQTLSLVPRLHWLLVEDAEGPTPLVSGLLAASGLLFTHLVVLTPKAQRLREGEPGWVHPRGVEQRNKALDWLRGRGGAVGGEKDPPPPGTQGVVYFADDDNTYSRELFEEMRWTRGVSVWPVGLVGGLRFEGPQVQDGRVVGFHTAWEPSRPFPVDMAGFAVALPLLLDKPNAQFDSTAPRGHLESSLLSHLVDPKDLEPRAANCTRVLVWHTRTEKPKMKQEEQLQRQGRGSDPAIEV
notes: human glucuronyltransferase GlcAT-1, UniProt O94766, residues 76-335, without the N-terminal transmembrane anchoring helix; Made from the pETM30 vector; The 6xHis-GST tag was removed by TEV protease; The printed monomer mass is 29 kDa; also called GlcAT-1_76-335; source: E. coli BL21(DE3)pLysS, purified (IMAC, TEV cleavage, flow-through of the second IMAC); not shown: 6xHistidine, N-terminal, …
  stoichiometry N: 2

B2: human β4GalT7, residues 81-327 (enzyme, UniProt Q9UBV7 81-327, looked up)
chain: PEHWEEDASWGPHRLAVLVPFRERFEELLVFVPHMRRFLSRKKIRHHIYVLNQVDHFRFNRAALINVGFLESSNSTDYIAMHDVDLLPLNEELDYGFPEAGPFHVASPELHPLYHYKTYVGGILLLSKQHYRLCNGMSNRFWGWGREDDEFYRRIKGAGLQLFRPSGITTGYKTFRHLHDPAWRKRDQKRIAAQKQEQFKVDREGGLNTVKYHVASRTALSVGGAPCTVLNIMLDCDKTATPWCTFS
notes: human beta-1,4-galactosyltransferase 7, UniProt Q9UBV7, residues 81-327, without the N-terminal transmembrane anchoring helix; Made from the pETM30 vector; The 6xHis-GST tag was removed by TEV protease; The printed monomer mass is 29 kDa; also called β4GalT7_81-327; source: E. coli Rosetta(DE3)pLysS, purified (IMAC, TEV cleavage, second IMAC, Superdex 200); not shown: 6xHistidine, N-terminal, …
  stoichiometry N: 2

B3: SUMO-β3GalT6 fusion protein (human β3GalT6 residues 53-329) (enzyme, UniProt Q96L58 53-329, looked up)
chain: ARAAAFLAVLVASAPRAAERRSVIRSTWLARRGAPGDVWARFAVGTAGLGAEERRALEREQARHGDLLLLPALRDAYENLTAKVLAMLAWLDEHVAFEFVLKADDDSFARLDALLAELRAREPARRRRLYWGFFSGRGRVKPGGRWREAAWQLCDYYLPYALGGGYVLSADLVHYLRLSRDYLRAWHSEDVSLGAWLAPVDVQREHDPRFDTEYRSRGCSNQYLVTHKQSLEDMLEKHATLAREGRLCKREVQLRLSYVYDWSAPPSQCCQRREGIP
notes: human beta-1,3-galactosyltransferase 6, UniProt Q96L58, residues 53-329, without the N-terminal transmembrane anchoring helix; The fusion was not cleaved; The printed monomer mass is 45 kDa; also called β3GalT6_53-329; source: FreeStyle 293-F cells, transfected, culture supernatant, purified (one-step IMAC, dialysis); not shown: SUMO, N-terminal, kept; 6xHistidine, N-terminal, kept
  stoichiometry N: 2
